The values that follow come from paper PMC8481183, “Resonance assignment of coiled-coil 3 (CC3) domain of human STIM1” (Biomolecular Nmr Assignments, 2021).

The series concerns the molecule itself. Kind of series: circular dichroism; STIM1 CC3 alone in 20 mM Bis-Tris, pH 6.0, without TFE, 20 °C; ratio [CD]222/[CD]208 as coiled-coil index.

B1: human STIM1 coiled-coil3 (CC3) fragment (amino acids 388–430) (domain or fragment, UniProt Q13586 388-430, looked up)
chain: NTLFGTFHVAHSSSLDDVDHKILTAKQALSEVTAALRERLHRW
notes: Cloned in pGEX 4T-1 (GST tag with thrombin cleavage site); The NMR sample was 15N/13C labelled; Purification follows Rathner et al. 2018; also called STIM1 CC3; CC3 domain; source: E. coli BL21, purified (protocol of Rathner et al. 2018, slightly modified)
With B1, the binding result is “binds”.
